Reference: PMC4081048

Molecular target: T1, GST-NHERF1-PDZ2 (PDZ2 domain of Na+/H+ exchanger regulatory factor 1 fused to GST)
T1 sequence (O14745 whole entry, species assumed, looked up): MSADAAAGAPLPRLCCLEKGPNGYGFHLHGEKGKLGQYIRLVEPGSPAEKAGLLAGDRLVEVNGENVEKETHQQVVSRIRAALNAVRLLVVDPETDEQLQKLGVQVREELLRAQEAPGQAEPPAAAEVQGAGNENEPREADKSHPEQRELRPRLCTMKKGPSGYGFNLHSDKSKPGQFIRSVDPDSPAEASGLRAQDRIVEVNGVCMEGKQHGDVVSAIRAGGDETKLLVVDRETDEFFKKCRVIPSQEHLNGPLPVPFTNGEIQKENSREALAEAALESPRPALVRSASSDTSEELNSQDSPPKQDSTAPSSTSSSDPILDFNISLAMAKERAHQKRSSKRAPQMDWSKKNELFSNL
Test: AlphaScreen or HTRF

Row | IC50 [nM] | Substance
1 | 89.3 | Flag-WT CFTR (cystic fibrosis transmembrane-conductance regulator, wild type) (from UniProt P13569 1-1480) (natural protein)
2 | 442 | Flag-ΔF508 CFTR (CFTR with deletion of phenylalanine at residue 508) (from UniProt P13569 1-1480) (natural protein)
